Test results reported in paper PMC6352406 (Annals of the Rheumatic Diseases, 2018).
Where two headings read alike, the source gives them in different places.

B1: VIB9600, humanised effector-null anti-FcγRIIA antibody (antibody, V domains shown)
VH: QVQLVQSGAEVKKPGASVKVSCKASGYTFTNYGMNWVRQAPGQRLEWMGWLNTYTGESWYPDDFKGRVTITRDTSASTAYMELSSLRSEDTAVYYCARGDYGYDDPLDYWGQGTLVTVSS
VL: DIVMTQSPLSLPVTPGEPASISCRSSKSLLHTNQNTYLHWFLQKPGQSPQLLIYRMSVLASGVPDRFSGSGSGTDFTLKISRVEAEDVGVYYCMQHLEYPLTFGQGTKLEIK

Tests used:
[1] = target: Human FcγRIIA 131H (Homo sapiens, FCGR2A 131H allele) (UniProt P12318); assay: SPR
[2] = target: Human FcγRIIA 131R (Homo sapiens, FCGR2A 131R allele) (UniProt P12318); assay: SPR
[3] = target: T1, FcγRIIA on human neutrophils (Homo sapiens, endogenous on …, UniProt P12318); assay: flow cytometry on cells
[4] = target: T1, FcγRIIA on human neutrophils; assay: flow cytometry on cells; remark: listed apart in the source

Chain of Human FcγRIIA 131H (Homo sapiens, FCGR2A 131H allele) (P12318 34-317): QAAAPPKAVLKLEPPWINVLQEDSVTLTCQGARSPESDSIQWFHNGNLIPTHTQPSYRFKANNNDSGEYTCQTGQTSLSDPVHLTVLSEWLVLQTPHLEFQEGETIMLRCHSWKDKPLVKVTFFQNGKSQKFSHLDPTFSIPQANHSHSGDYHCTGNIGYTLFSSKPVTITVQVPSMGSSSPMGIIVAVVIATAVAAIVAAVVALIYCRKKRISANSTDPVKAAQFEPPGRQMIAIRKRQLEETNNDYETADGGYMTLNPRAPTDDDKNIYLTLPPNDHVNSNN
Chain of Human FcγRIIA 131R (Homo sapiens, FCGR2A 131R allele) (P12318 whole entry, looked up, tested part not stated): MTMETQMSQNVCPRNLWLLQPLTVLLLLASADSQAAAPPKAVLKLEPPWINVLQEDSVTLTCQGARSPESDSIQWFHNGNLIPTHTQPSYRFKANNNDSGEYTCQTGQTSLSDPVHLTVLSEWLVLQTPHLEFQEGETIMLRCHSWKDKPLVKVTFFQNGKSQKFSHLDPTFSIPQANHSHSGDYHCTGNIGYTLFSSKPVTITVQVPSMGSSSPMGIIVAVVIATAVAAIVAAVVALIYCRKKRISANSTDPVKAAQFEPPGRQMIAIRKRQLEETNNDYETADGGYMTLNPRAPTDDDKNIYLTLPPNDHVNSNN
T1 sequence (P12318 34-317): as the sequence (P12318 34-317) above

Molecule | Kd [1] [nM] | koff [1] [s⁻¹] | Kd [2] [nM] | koff [2] [s⁻¹] | kon [2] [M⁻¹ s⁻¹] | kon [1] [M⁻¹ s⁻¹] | EC50 [3] [nM] | EC50 [4] [nM]
VIB9600 Fab | 0.13 | 0.000337 | 0.15 | 0.000735 | 4.98e+06 | – | – | –
IV.3 Fab | 0.22 | 0.000681 | 0.22 | 0.00129 | 5.95e+06 | 3.03e+06 | – | –
B1 | – | – | – | – | – | – | 0.03 | 3.35
